Consider 21 sequences from the DeepSol protein solubility set.

The series in a line: soluble on expression in E. coli; label from the status in PepcDB or PDB records.
As for “MNNSGADEIGKLFVGGLDWSTTQETLRSYFSQYGEVVDCVIMKDKTTNQSRGFGFVKFKDPNCVGTVLASRPHTLDGRNIDPKPCTPRGMQPERTRPKEGWQKGPRSDNSKSNKIFVGGIPHNCGETELREYFKKFGVVTEVVMIYDAEKQRPRGFGFITFEDEQSVDQAVNMHFHDIMGKKVEVKRAEPRDSKSQAPGQPGASQWGSRVVPNAANGWAGQPPPTWQQGYGPQGMWVPAGQAIGGYGPPPAGRGAPPPPPPFTSYIVSTPPGGFPPPQGFPQGYGAPPQFSFGYGPPPPPPDQFAPPGVPPPPATPGAAPLAFPPPPSQAAPDMSKPPTAQPDFPYGQYAGYGQDLSGFGQGFSDPSQQPPSYGGPSVPGSGGPPAGGSGFGRGQNHNVQGFHPYRR”, the “soluble on expression in E. coli” value is “soluble”.

In the case of “MNNTYNEKTHTLIKQLLKKFSPKVPGFAYMASFDSGVTYKGAVGLASIEENLPITTKSVFNIASVSKQFTAFSILLLEQEGRLSLDDSIVKFVPSIGTYAEPVTLRHLIHHTGGLVDYMELAHAENIEFTDILTVEQSLKHLNGHQIARFPVGTKFEYSNTGYFLLSLVVEKVSGKSLRQFAKERIFDSLNMKDTTIVDCYPTTISIARGYSKNEQGAYMVYESPWEHTGDGAVHATVEDLVKWGENLTTGTVGGKELVKRMSEIGPEISPTRETIIANEDYAFGLRLAEGFNCRYLEHSGSWAGYRSYFMRFPKEYLTVVVLSNYDGFDSKKYANEIAGIILEK”, the “soluble on expression in E. coli” value is given as “not soluble”.

Consider “MNPIVVLGSKVVDGQVTGLLASRLEKAIEVSSLTPEAPVVVSGFGEAAAMADYLRARGVTTIVEEPWATSTNENLENAHALFPDTLQWTVVTSGFHAWRTYLWAWHLGIPIKVVTARTPSAERLGMAMRECFALPHSTLRVLWRKIRTPKNLEHHHHHH”, for which the “soluble on expression in E. coli” value was “soluble”.

Turning to “MNPKIVFFDIDDTLYRKYTDTLRPSVKTAVAALRGKGILTALATGRSLATIPEKVRDMMAEAGMDAVVTINGQFALLHGKTVREVPMDAGLMGRVCAHLDGLGMDYAFVGGEGIAVSALSECVCRALKHIASDFFADKDYFSSKPVYQMLVFAEENEMPL”, the “soluble on expression in E. coli” value was “not soluble”.

As for “MNPPDISVLIVSFNTRDLLRRCLASLRDQAGGTGIETIVVDNASRDGSADMVEAEFPDVRLIRSPVNLGFGNANNLAFTQSRGRYLVLLNSDACLAPGLLDAASKRMDACPDVGMAGGRLVGPEGGWQPSARMFPSLLNEFLVLSGLAHRYPKSRLFGRFDRTWADPSEEAGVDWVPGAFAILRRDLIDRIGFFDPRFFLYYEEVDLCRRIRAAGCKIMYWPELVITHLGGESAKTLSDMEFSSHASQLTLWRMRSQALYYRKWHGLALAWSAKTLEQLWHWLRALRHRRSAPAKAHDSEALIRLWNRAWKETEGGRVSPPQPWLEHHHHHH”, the “soluble on expression in E. coli” value is recorded as “not soluble”.

Consider “MNPSVKIVVLSLPTATARRSQMSAMLGNTSLDWQYFDAHASLMCPNLHYDGAELRRHFGRNLSPPEIAVCSSHAAILQEFVDRNQADYILVLEDDVIFDTDFPLDQFCAFCASNGLEYVRLFGKHYAKAVHLGFFYDRSIVRFTTSPAGAQAYLMSRMAARRFLDSYQSIRATVDLAMDSFWITQLPIYSIFPYPIIERFSPTSIPMPPHTVEVRGLEHAIWQGARVVNKAKKILTNAKLRKSDESLRQRHWQFRQVGRVDVEQRRDPAAALEHHHHHH”, for which the “soluble on expression in E. coli” value is “soluble”.

Take “MNPTTLADVDTVIINANILTLDRDCPHAQAIAFAAGRILALGTTQELSPLAGRAATVVDARGSTLLPGFIDSHSHLMFGGVVAQALDLTEAACLSDLLDMVRSRAQSTPEGEWIRGYGVAAGRLKEKRYPTRQELDQVSGGRPVWLAEDSFHASLVNSKAFRMLEIPLSTPGVELAADGSPTGAFLNDAANVPARQRVFGFISDDEARQMLQHVTQLGATRGVTTVHAFEGSRMSADRDIELLMRFRHELPIHVVPYYETFDVERAMQLGVSGVGGCGRNCLDGMPNIQTAAMVDPYCCSEERGSLFQESIKLHNFVIAAFERGMQVGMHAMGDAAIEQLLATYERAIEETGRTDLRPRIEHFHVPSRDHVRRAADLGVGLAVQPIFTHLWGGRDGIFFERLGERRYKRIDTYREILDSGAIASCGADLPVHPADPLRWIQLLVDNQIDRDQSVSMTEAIRMCTYNGAWLGFQESETGTLAVSKAADAVMLGRDPHQCMPHEIAAIPILKTLGGKLVFESSRPLEHHHHHH”: the “soluble on expression in E. coli” value is on record as “not soluble”.

“MNQQKSLTLIVALTTSYGIGRSNSLPWKLKKEISYFKRVTSFVPTFDSFESMNVVLMGRKTWESIPLQFRPLKGRINVVITRNESLDLGNGIHSAKSLDHALELLYRTYGSESSVQINRIFVIGGAQLYKAAMDHPKLDRIMATIIYKDIHCDVFFPLKFRDKEWSSVWKKEKHSDLESWVGTKVPHGKINEDGFDYEFEMWTRDL”: the “soluble on expression in E. coli” value is given as “soluble”.

As to “MNQWMELADRVLAGAEVTDEEALSILHCPDEDILLLMHGAFHIRKHFYGKKVKLNMIMNAKSGLCPENCGYCSQSAISKAPIESYRMVNKETLLEGAKRAHDLNIGTYCIVASGRGPSNREVDQVVDAVQEIKETYGLKICACLGLLKPEQAKRLKDAGVDRYNHNLNTSQRNHSNITTSHTYDDRVNTVEIAKESGLSPCSGAIIGMKETKQDVIDIAKSLKALDADSIPVNFLHAIDGTPLEGVNELNPLYCLKVLALFRFINPSKEIRISGGREVNLRTLQPLGLYAANSIFVGDYLTTAGQEETEDHKMLSDLGFEVESVEEMKASLSAKSLEHHHHHH”, the “soluble on expression in E. coli” value is recorded as “not soluble”.

Take “MNQYQKTTERKKQAIIQAALHLFKEKGFKGTSIKSIAKAAQVSPVSIYNYFESKESLVDLCVNKLFEEITQEAENILTSEIDFKMKLCQALALCQKKMSHQISVYFKEKTIKDPTFSKLLTKAIVAKKREIYRSYIKLGKDEGVIAKDLSTELILNVMDALNSIGNQLSESENLGEEIEQIHRLFLYGIFGKI”: the “soluble on expression in E. coli” value is recorded as “not soluble”.

As for “MNRAEKREFVTWLNEAFRKSGSVIVAHYSGLTVSQMNDLRSKMSEAGGAIKVAKNRLAKIALQGTESESIVDLFSGQTLIAYSEDPITAPKVAVDFAKTNDKFVILGGSMGATSLSVDAVKSLASLPSLNELRAKLVGMISTPATRIAQVVNAPAGQVVRVIGAYAQEGKAA”, the “soluble on expression in E. coli” value is listed as “not soluble”.

“MNRPSGRAADQLRPIRITRHYTKHAEGSVLVEFGDTKVICTVSAESGVPRFLKGQGQGWLTAEYGMLPRSTGERNQREASRGKQGGRTLEIQRLIGRSLRAALDLSKLGENTLYIDCDVIQADGGTRTASITGATVALIDALAVLKKRGALKGNPLKQMVAAVSVGIYQGVPVLDLDYLEDSAAETDLNVVMTDAGGFIEVQGTAEGAPFRPAELNAMLELAQQGMQELFELQRAALAE”: the “soluble on expression in E. coli” value is listed as “soluble”.

Regarding “MNRSMKQYDPIDFVVDWVDSNDISWKKKKSLYEENVISSVDDSQARYRDWGIFKYWFRAVEKNAPWVHKIFIITDHQNPKFLNKHSSKIVFVNHEDFIPNEYLPTFNSDAIEIGIQNIPGLSEHFVFFNDDMFINKPVKPIDFFDGNIPKDSGVMGPQFPISNSITHITVNNMEIINKYFLKKKVLRKYFFKFFNWRYGKDNIRTATALPWQVFIGFYDMHIPISFLKSTFDNVWSEVGNLLSQNYQHRFRSQLDYSVWLMRYFQLASGNFFPRRTRFGKYYNLGEQTEEIINDIKTGKHALIVLNDQESINDYPYEKKLVNEVFERRYSRKSEFENLEHHHHHH”, the “soluble on expression in E. coli” value is on record as “not soluble”.

“MNRSNAQTERGRRWYVGDRLHVDVRGLPCPEPLVTVLRLIDGSEVGDGLTALVSQEPLLLYPELDARGCRYRMVTPAGDTLLRDGEVVLEIERSK”: the “soluble on expression in E. coli” value is “not soluble”.

“MNRTDELRTARIESLVTPAELALRYPVTPGVATHVTDSRRRIEKILNGEDKRLLVIIGPCSIHDLTAAMEYATRLQSLRNQYQSRLEIVMRTYFEKPRTVVGWKGLISDPDLNGSYRVNHGLELARKLLLQVNELGVPTATEFLDMVTGQFIADLISWGAIGARTTESQIHREMASALSCPVGFKNGTDGNTRIAVDAIRAARASHMFLSPDKNGQMTIYQTSGNPYGHIIMRGGKKPNYHADDIAAACDTLHEFDLPEHLVVDFSHGNCQKQHRRQLEVCEDICQQIRNGSTAIAGIMAESFLREGTQKIVGSQPLTYGQSITDPCLGWEDTERLVEKLASAVDTRF”: the “soluble on expression in E. coli” value is “soluble”.

For the sequence “MNSGYSANIFPSSSSPTLYQSHQLPNPSATMYQATPRDMGKPPVRGKTSPYGFFVKMCYEEHKKKYPNENVQVTEISKKCSEKWKTMVDDEKRRFYELAQKDAERYQAEVSVAAYGGEDAMRKRKRAKKDPHAPKRALSAFFFYSQDKRPEIQAGHPDWKVGQVAQELGKMWKLVPQETKDMYEQKAQADKDRYADEMRNYKAEMQKMSGMDHYDDDNIHHVVHVEDINSQNIS”, the “soluble on expression in E. coli” value was “not soluble”.

In the case of “MNSPANITDPLVLFMPSGKRGRFPVGTPVLDAARQLGVYVESVCGGRATCGRCQIEVQEGNFAKHKIVSSNDHISPKGPKEERYERVRGLPERRRLSCSAQILGDLVIDVPQDTVINAQTIRKDLEHHHHHH”, the “soluble on expression in E. coli” value is given as “not soluble”.

For “MNSRIETFHQMEWHFFSLISMELLSLEGLKACNSGMPIPALNPVFYSGKSTLLVAEIYQCKRFYESHSVPWALMVPDYLSDTKTDNVLAQSGFLSIDQGVAMYLSIQDLGMPGFKSDLLIKRMDNEMETWILPTIPAFESTAEIAKIYRVRHQEAIEKSSDIYHFSGFIQEQIVCSLTLTVMGDCARIDDVATFPKYQKNGYATQLILSELQILKDTNISWCFLEASADGLNIYKKIGFRELFKNLYYEEQYHYEQN”, the “soluble on expression in E. coli” value is “not soluble”.

Turning to “MNTDVRIEKDFLGEKEIPKDAYYGVQTIRATENFPITGYRIHPELIKSLGIVKKSAALANMEVGLLDKEVGQYIVKAADEVIEGKWNDQFIVDPIQGGAGTSINMNANEVIANRALELMGEEKGNYSKISPNSHVNMSQSTNDAFPTATHIAVLSLLNQLIETTKYMQQEFMKKADEFAGVIKMGRTHLQDAVPILLGQEFEAYARVIARDIERIANTRNNLYDINMGATAVGTGLNADPEYISIVTEHLAKFSGHPLRSAQHLVDATQNTDCYTEVSSALKVCMINMSKIANDLRLMASGPRAGLSEIVLPARQPGSSIMPGKVNPVMPEVMNQVAFQVFGNDLTITSASEAGQFELNVMEPVLFFNLIQSISIMTNVFKSFTENCLKGIKANEERMKEYVEKSIGIITAINPHVGYETAAKLAREAYLTGESIRELCIKYGVLTEEQLNEILNPYEMIHPGIAGRK”, the “soluble on expression in E. coli” value was “soluble”.

As to “MNTINRNYYPVSGIPAQDAPAQTDQLPPQGQGIKPGHNSNLIDFGLTQQANGPHSSLNTLGSRVQPTDTNTSSNMPGGNGEQVLNKLVQAIRNILNNLLSLLEGNLHNGSGPAQPQRDQTPTLAQSPSSASPSSSPPSTPQGNAEKPFVVQNDHPSEKPVSLQKNTEPTSAAPSQTAPRTTERSSATPDKTPARPDAVNPAVVHDLALPKTSTDTTAKPDNTVNAAKTATPAAHGQGADMSGIMGFAKEANTTGGNGGEVVTVNTVADLKKYMEDDKARTVKLGANLSADSKVTINFGANKTLLGTDKGNSLHNIYLASGKTASNDIFQNLNFDHDSRYRENGDMQMFISSGQKYWIDHNTYSGTKDQNAKGLDKLLYVGGTADNVSLTNSKFQNNEYGVILGQPDDSAQAKAEYKGYPRMTIANNVFSNLDVRAPGLMRHGQFDVLNNSIDNFHLGFTATGDATILSQANYFAKGVDVSDKASNSGVLDDYGDAHFKDIGSNVSFTQKSAVTAWTPSYQRDIKTAEAARAYDQANAGAKTVS”, the “soluble on expression in E. coli” value is “not soluble”.

For the sequence “MNTNDAKEYLARREIPQLFESLLNGLMCSKPEDPVEYLESCLQKVKELGGCDKVKWDTFVSQEKKTLPPLNGGQSRRSFLRNVMPENSNFPYRRYDRLPPIHQFSIESDTDLSETAELIEEYEVFDPTRPRPKIILVIGGPGSGKGTQSLKIAERYGFQYISVGELLRKKIHSTSSNRKWSLIAKIITTGELAPQETTITEIKQKLMQIPDEEGIVIDGFPRDVAQALSFEDQICTPDLVVFLACANQRLKERLL”, the “soluble on expression in E. coli” value is listed as “soluble”.
